In patent publication US20110046068A1 (MEDICAL RESEARCH COUNCIL, published 2011):
Values belong to the binder of their own block, whether it stands above or below them. Non-standard residues stand in square brackets, D forms with d.

Columns and labels:
human gpr-54 receptor [1] = target: T1, human gpr-54 receptor (human, UniProt Q969F8 1-398); experiment: cell-based or functional assay
human gpr-54 receptor [2] = target: T1, human gpr-54 receptor; experiment: cell-based or functional assay; remark: listed apart in the source
human gpr-54 receptor [3] = target: T1, human gpr-54 receptor; experiment: cell-based or functional assay; remark: listed apart in the source
human gpr-54 receptor [4] = target: T1, human gpr-54 receptor; experiment: cell-based or functional assay; remark: listed apart in the source
human gpr-54 receptor [5] = target: T1, human gpr-54 receptor; experiment: cell-based or functional assay; remark: listed apart in the source
human gpr-54 receptor [6] = target: T1, human gpr-54 receptor; experiment: whole-cell competition binding against 125I-kisspeptin, CHO cells stably transfected with GPR54 (CPM); the fall of the curve lies between Total and -10 LogM [201]
Procedure: Cell monolayers were placed on ice and exposed to 0.5 mls peptide (10 pM-1 uM); the cells were then incubated at 4° C. for 4 hr. After 4 hrs, cells were washed twice with ice cold Dulbecco's phosphate buffered saline (DPBS; with Calcium and Magnesium) and then 0.5 mls 0.1M Sodium Hydroxide (NaOH) were added to cells for 20 minutes, shaking to lyse cells. Lysates were transferred to plastic tubes and bound radioactivity counted on the gamma counter for 60 seconds.

T1 sequence (Q969F8 whole entry): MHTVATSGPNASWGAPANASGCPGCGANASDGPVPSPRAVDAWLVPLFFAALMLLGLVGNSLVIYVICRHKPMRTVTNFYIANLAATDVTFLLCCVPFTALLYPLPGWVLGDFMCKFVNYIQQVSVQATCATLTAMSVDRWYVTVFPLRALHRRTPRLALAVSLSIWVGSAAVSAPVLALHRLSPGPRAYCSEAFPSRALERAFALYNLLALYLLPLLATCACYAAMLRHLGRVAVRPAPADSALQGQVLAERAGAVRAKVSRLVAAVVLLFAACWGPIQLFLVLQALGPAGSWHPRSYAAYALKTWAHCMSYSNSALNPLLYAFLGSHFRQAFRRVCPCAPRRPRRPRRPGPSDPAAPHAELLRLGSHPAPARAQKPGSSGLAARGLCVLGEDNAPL

B1: 238 (peptide)
peptide: Ac-[dY]NWNSFG[dW]RF-NH2
SMILES: CC(=O)N[C@H](Cc1ccc(O)cc1)C(=O)N[C@@H](CC(N)=O)C(=O)N[C@@H](Cc1c[nH]c2ccccc12)C(=O)N[C@@H](CC(N)=O)C(=O)N[C@@H](CO)C(=O)N[C@@H](Cc1ccccc1)C(=O)NCC(=O)N[C@H](Cc1c[nH]c2ccccc12)C(=O)N[C@@H](CCCNC(=N)N)C(=O)N[C@@H](Cc1ccccc1)C(N)=O
IP stimulation (IC50), peptide alone (human gpr-54 receptor [1]): 2800 nM | Inhibition of IP stimulation by 10nM Agonist: % Inhibition of Max (human gpr-54 receptor [1]): 0% | IP dose response, peptide alone: EC50 (unlabelled number beside rising curve) [238] (human gpr-54 receptor [2]): 2820 nM

B2: 239 (peptide)
peptide: Ac-[dY][dN]WNSFGWRF-NH2
SMILES: CC(=O)N[C@H](Cc1ccc(O)cc1)C(=O)N[C@H](CC(N)=O)C(=O)N[C@@H](Cc1c[nH]c2ccccc12)C(=O)N[C@@H](CC(N)=O)C(=O)N[C@@H](CO)C(=O)N[C@@H](Cc1ccccc1)C(=O)NCC(=O)N[C@@H](Cc1c[nH]c2ccccc12)C(=O)N[C@@H](CCCNC(=N)N)C(=O)N[C@@H](Cc1ccccc1)C(N)=O
IP stimulation (IC50), peptide alone (human gpr-54 receptor [1]): 5 nM | Inhibition of IP stimulation by 10nM Agonist: % Inhibition of Max (human gpr-54 receptor [1]): 0% | IP dose response, peptide alone: EC50 (unlabelled number beside rising curve) [239] (human gpr-54 receptor [3]): 4.99 nM

B3: 242 (peptide)
peptide: Ac-[dY][dN]WNGFG[dW]RF-NH2
modifications: also: further groups not given here
Inhibition of IP stimulation by 10nM Agonist: % Inhibition of Max (human gpr-54 receptor [1]): 15%

B5: 244 (peptide)
peptide: Ac-[dF]NWNGFG[dW]RF-NH2
SMILES: CC(=O)N[C@H](Cc1ccccc1)C(=O)N[C@@H](CC(N)=O)C(=O)N[C@@H](Cc1c[nH]c2ccccc12)C(=O)N[C@@H](CC(N)=O)C(=O)NCC(=O)N[C@@H](Cc1ccccc1)C(=O)NCC(=O)N[C@H](Cc1c[nH]c2ccccc12)C(=O)N[C@@H](CCCNC(=N)N)C(=O)N[C@@H](Cc1ccccc1)C(N)=O
Inhibition of IP stimulation by 10nM Agonist: % Inhibition of Max (human gpr-54 receptor [1]): 60% | Inhibition of IP stimulation by 10nM Agonist: IC50 (human gpr-54 receptor [1]): 10 nM

B8: 246 (peptide)
peptide: Ac-[dA]NWNG[dW]G[dW]RF-NH2
SMILES: CC(=O)N[C@H](C)C(=O)N[C@@H](CC(N)=O)C(=O)N[C@@H](Cc1c[nH]c2ccccc12)C(=O)N[C@@H](CC(N)=O)C(=O)NCC(=O)N[C@H](Cc1c[nH]c2ccccc12)C(=O)NCC(=O)N[C@H](Cc1c[nH]c2ccccc12)C(=O)N[C@@H](CCCNC(=N)N)C(=O)N[C@@H](Cc1ccccc1)C(N)=O
Inhibition of IP stimulation by 10nM Agonist: % Inhibition of Max (human gpr-54 receptor [1]): 80% | Inhibition of IP stimulation by 10nM Agonist: IC50 (human gpr-54 receptor [1]): 50 nM

B9: 245 (peptide)
peptide: Ac-[dY]NWNG[dW]G[dW]RF-NH2
SMILES: CC(=O)N[C@H](Cc1ccc(O)cc1)C(=O)N[C@@H](CC(N)=O)C(=O)N[C@@H](Cc1c[nH]c2ccccc12)C(=O)N[C@@H](CC(N)=O)C(=O)NCC(=O)N[C@H](Cc1c[nH]c2ccccc12)C(=O)NCC(=O)N[C@H](Cc1c[nH]c2ccccc12)C(=O)N[C@@H](CCCNC(=N)N)C(=O)N[C@@H](Cc1ccccc1)C(N)=O
Inhibition of IP stimulation by 10nM Agonist: % Inhibition of Max (human gpr-54 receptor [1]): 66% | Inhibition of IP stimulation by 10nM Agonist: IC50 (human gpr-54 receptor [1]): 10000 nM

B10: 237 (peptide)
peptide: Ac-[dY]NWNGFGWRF-NH2
SMILES: CC(=O)N[C@H](Cc1ccc(O)cc1)C(=O)N[C@@H](CC(N)=O)C(=O)N[C@@H](Cc1c[nH]c2ccccc12)C(=O)N[C@@H](CC(N)=O)C(=O)NCC(=O)N[C@@H](Cc1ccccc1)C(=O)NCC(=O)N[C@@H](Cc1c[nH]c2ccccc12)C(=O)N[C@@H](CCCNC(=N)N)C(=O)N[C@@H](Cc1ccccc1)C(N)=O
IP stimulation (IC50), peptide alone (human gpr-54 receptor [1]): 6400 nM | Inhibition of IP stimulation by 10nM Agonist: % Inhibition of Max (human gpr-54 receptor [1]): 0% | IP dose response, peptide alone: EC50 (unlabelled number beside rising curve) [237] (human gpr-54 receptor [2]): 6380 nM

B12: 241 (peptide)
peptide: Ac-[dY][dN]WNSFG[dW]RF-NH2
Inhibition of IP stimulation by 10nM Agonist: % Inhibition of Max (human gpr-54 receptor [1]): 24%

B13: 191 (peptide)
peptide: Ac-FG[dL]RW-NH2
IP stimulation (IC50), peptide alone (human gpr-54 receptor [1]): 20000 nM | Inhibition of IP stimulation by 10nM Agonist: % Inhibition of Max (human gpr-54 receptor [1]): 79% | IP dose response, peptide alone: EC50 (unlabelled number beside rising curve) [191] (human gpr-54 receptor [4]): 26100 nM

B16: 243 (peptide)
peptide: Ac-[dW]NWNGFG[dW]RF-NH2
SMILES: CC(=O)N[C@H](Cc1c[nH]c2ccccc12)C(=O)N[C@@H](CC(N)=O)C(=O)N[C@@H](Cc1c[nH]c2ccccc12)C(=O)N[C@@H](CC(N)=O)C(=O)NCC(=O)N[C@@H](Cc1ccccc1)C(=O)NCC(=O)N[C@H](Cc1c[nH]c2ccccc12)C(=O)N[C@@H](CCCNC(=N)N)C(=O)N[C@@H](Cc1ccccc1)C(N)=O
Inhibition of IP stimulation by 10nM Agonist: % Inhibition of Max (human gpr-54 receptor [1]): 55% | Inhibition of IP stimulation by 10nM Agonist: IC50 (human gpr-54 receptor [1]): 10 nM

B17: 201 (peptide)
peptide: Ac-FGARW-NH2
notes: kisspeptin-10 analogue; also called acFGARW
Inhibition of IP stimulation by 10nM Agonist: % Inhibition of Max (human gpr-54 receptor [1]): 69% | Inhibition of IP stimulation by 10nM Agonist: IC50 (human gpr-54 receptor [1]): 7 nM | IP competition with 10nM kisspeptin-10: IC50 [201] (human gpr-54 receptor [5]): 7 nM | IC50 (human gpr-54 receptor [6]): 0.00432 nM

B19: 240 (peptide)
peptide: Ac-[dY][dN]WNGFGWRF-NH2
Inhibition of IP stimulation by 10nM Agonist: % Inhibition of Max (human gpr-54 receptor [1]): 39%

More lines, now with the values ahead:

Inhibition of IP stimulation by 10nM Agonist: % Inhibition of Max (human gpr-54 receptor [1]): 65% | Inhibition of IP stimulation by 10nM Agonist: IC50 (human gpr-54 receptor [1]): 0.001 nM
B4: 276 (peptide)
peptide: Ac-[dA]NWNGFG[dL]RF-NH2
SMILES: CC(=O)N[C@H](C)C(=O)N[C@@H](CC(N)=O)C(=O)N[C@@H](Cc1c[nH]c2ccccc12)C(=O)N[C@@H](CC(N)=O)C(=O)NCC(=O)N[C@@H](Cc1ccccc1)C(=O)NCC(=O)N[C@H](CC(C)C)C(=O)N[C@@H](CCCNC(=N)N)C(=O)N[C@@H](Cc1ccccc1)C(N)=O

Inhibition of IP stimulation by 10nM Agonist: % Inhibition of Max (human gpr-54 receptor [1]): 47% | Inhibition of IP stimulation by 10nM Agonist: IC50 (human gpr-54 receptor [1]): > 100 nM
B6: 278 (peptide)
peptide: Ac-[dA]NWNGFGL[dR]F-NH2

IP stimulation (IC50), peptide alone (human gpr-54 receptor [1]): 530000 nM | Inhibition of IP stimulation by 10nM Agonist: % Inhibition of Max (human gpr-54 receptor [1]): 73% | Inhibition of IP stimulation by 10nM Agonist: IC50 (human gpr-54 receptor [1]): 0.1 nM
B7: 274 (peptide)
peptide: Ac-[dA]NWNPFG[dW]RF-NH2
SMILES: CC(=O)N[C@H](C)C(=O)N[C@@H](CC(N)=O)C(=O)N[C@@H](Cc1c[nH]c2ccccc12)C(=O)N[C@@H](CC(N)=O)C(=O)N1CCC[C@H]1C(=O)N[C@@H](Cc1ccccc1)C(=O)NCC(=O)N[C@H](Cc1c[nH]c2ccccc12)C(=O)N[C@@H](CCCNC(=N)N)C(=O)N[C@@H](Cc1ccccc1)C(N)=O

IP stimulation (IC50), peptide alone (human gpr-54 receptor [1]): 21 nM | Inhibition of IP stimulation by 10nM Agonist: % Inhibition of Max (human gpr-54 receptor [1]): 44% | Inhibition of IP stimulation by 10nM Agonist: IC50 (human gpr-54 receptor [1]): > 100 nM
B11: 275 (peptide)
peptide: Ac-[dA]NWN[dP]FG[dW]RF-NH2
SMILES: CC(=O)N[C@H](C)C(=O)N[C@@H](CC(N)=O)C(=O)N[C@@H](Cc1c[nH]c2ccccc12)C(=O)N[C@@H](CC(N)=O)C(=O)N1CCC[C@@H]1C(=O)N[C@@H](Cc1ccccc1)C(=O)NCC(=O)N[C@H](Cc1c[nH]c2ccccc12)C(=O)N[C@@H](CCCNC(=N)N)C(=O)N[C@@H](Cc1ccccc1)C(N)=O

Inhibition of IP stimulation by 10nM Agonist: % Inhibition of Max (human gpr-54 receptor [1]): 57% | Inhibition of IP stimulation by 10nM Agonist: IC50 (human gpr-54 receptor [1]): 5 nM
B14: Peptide 271 (peptide)
peptide: Ac-RRMKWKKY[dA]NWNGFG[dW]RF-NH2

Inhibition of IP stimulation by 10nM Agonist: % Inhibition of Max (human gpr-54 receptor [1]): 64% | Inhibition of IP stimulation by 10nM Agonist: IC50 (human gpr-54 receptor [1]): 5000 nM
B15: 248 (peptide)
peptide: Ac-[dA]NWNGFGWRF-NH2
SMILES: CC(=O)N[C@H](C)C(=O)N[C@@H](CC(N)=O)C(=O)N[C@@H](Cc1c[nH]c2ccccc12)C(=O)N[C@@H](CC(N)=O)C(=O)NCC(=O)N[C@@H](Cc1ccccc1)C(=O)NCC(=O)N[C@@H](Cc1c[nH]c2ccccc12)C(=O)N[C@@H](CCCNC(=N)N)C(=O)N[C@@H](Cc1ccccc1)C(N)=O

Inhibition of IP stimulation by 10nM Agonist: % Inhibition of Max (human gpr-54 receptor [1]): 80% | Inhibition of IP stimulation by 10nM Agonist: IC50 (human gpr-54 receptor [1]): 8 nM
B18: 247 (peptide)
peptide: Ac-[dA]NWNSFG[dW]RF-NH2
SMILES: CC(=O)N[C@H](C)C(=O)N[C@@H](CC(N)=O)C(=O)N[C@@H](Cc1c[nH]c2ccccc12)C(=O)N[C@@H](CC(N)=O)C(=O)N[C@@H](CO)C(=O)N[C@@H](Cc1ccccc1)C(=O)NCC(=O)N[C@H](Cc1c[nH]c2ccccc12)C(=O)N[C@@H](CCCNC(=N)N)C(=O)N[C@@H](Cc1ccccc1)C(N)=O

IP stimulation (IC50), peptide alone (human gpr-54 receptor [1]): 1500 nM | Inhibition of IP stimulation by 10nM Agonist: % Inhibition of Max (human gpr-54 receptor [1]): 57% | Inhibition of IP stimulation by 10nM Agonist: IC50 (human gpr-54 receptor [1]): 0.05 nM
B20: 277 (peptide)
peptide: Ac-[dA]NWN[dA]FGLRF-NH2
SMILES: CC(=O)N[C@H](C)C(=O)N[C@@H](CC(N)=O)C(=O)N[C@@H](Cc1c[nH]c2ccccc12)C(=O)N[C@@H](CC(N)=O)C(=O)N[C@H](C)C(=O)N[C@@H](Cc1ccccc1)C(=O)NCC(=O)N[C@@H](CC(C)C)C(=O)N[C@@H](CCCNC(=N)N)C(=O)N[C@@H](Cc1ccccc1)C(N)=O
